Experimental findings from patent US20040138133A1 (Scripps Research, published 2004) are described below.

The experiment has as its target T1, Nck (adapter protein) from detergent extracts of human endothelial cells (human, UniProt P16333 2-377, limits assumed).
T1 construct: Endogenous protein pulled down from a cell lysate
In words: peptide-agarose pull-down from human endothelial cell lysate, anti-Nck western blot. How it is done:
Affinity Chromatography. PRO or control peptides containing an N-terminal cysteine were dissolved in about 1 ml of coupling buffer (50 mM tris pH 8.0, 5 mM EDTA) and about 0.5 ml at about 3 mg/ml peptide added to about 2 ml of activated thiol-Sepharose (Pharmacia). Samples were incubated at a temperature of about 4° C. overnight with 1% β-mercaptoethanol added to block unreacted sites. Beads were rinsed and stored at a temperature of about 4° C. Endothelial cell cultures in 15 cm dishes were extracted in about 1.0 ml of cold (about 4° C.), lysis buffer (20 mM pH 7.4 sodium phosphate, 100 mM NaCl, 1% Triton X-100, 10 mM NaF, 2 mM EDTA, 1 mM sodium orthovanadate, 1 mM PMSF, 10 μg/ml each of leupeptin and aprotinin). The extracts were centrifuged for about 10 minutes at top speed in a microfuge and the supernatants were then removed. A 0.5 ml sample of each extract was incubated with about 10 μl of packed beads for about 1 hour, with rotation at a temperature of about 4° C. The beads were rinsed with lysis buffer (about 4×0.5 ml) and dissolved in SDS sample buffer (about 0.04 ml). Samples were analyzed by SDS PAGE on 10% gels and immunoblotting with anti-NCK (Santa Cruz) and HRP-protein A as secondary, and then were developed and detected using enhanced chemiluminescence (ECL kit, Amersham). […]

No end group written: not given here.

Consider KAGAPPMRNTSTMC (also: C-terminal Cys coupled to thiol-Sepharose (agarose) beads, also called mutant peptide), for which the binding result is “no binding”.
